From paper doi:10.1101/2022.10.18.512811 (bioRxiv, 2022)
Like-named read-outs stand apart in the source and are kept apart here.

Columns and labels:
[1] = target: His-tagged NlpE N-terminal domain (E. coli); test: cross-linking
[2] = target: the molecule itself; test: dimer band on denaturing SDS-PAGE
[3] = target: the molecule itself; test: dimer band on denaturing SDS-PAGE; remark: listed apart in the source

His-tagged NlpE N-terminal domain (domain or fragment)
stoichiometry N [1]: 2

B1: C-terminally His-tagged WT NlpE expressed from pTrc99A (natural protein, E. coli, UniProt P40710 21-236, looked up)
chain: CNNRAEVDTLSPAQAAELKPMPQSWRGVLPCADCEGIETSLFLEKDGTWVMNERYLGAREEPSSFASYGTWARTADKLVLTDSKGEKSYYRAKGDALEMLDREGNPIESQFNYTLEAAQSSLPMTPMTLRGMYFYMADAATFTDCATGKRFMVANNAELERSYLAARGHSEKPVLLSVEGHFTLEGNPDTGAPTKVLAPDTAGKFYPNQDCSSLGQ
modifications: lipid-modified N-terminal cysteine (Cys21)
stoichiometry N [2]: 2

B2: purified, soluble, C-terminal His×6-tagged NlpE (natural protein, E. coli, UniProt P40710 21-236, looked up)
chain: B1 chain
stoichiometry N [3]: 2
